Target: T1, rat CASPR/p190 (rat, UniProt P97846 21-1381)
T1 construct: Endogenous in GH3 cells and rat brain, or expressed from pCM190R in COS7 cells; read from membrane lysates; no cleavage site stated; also called Contactin ASsociated PRotein; 190 kDa protein
T1 sequence: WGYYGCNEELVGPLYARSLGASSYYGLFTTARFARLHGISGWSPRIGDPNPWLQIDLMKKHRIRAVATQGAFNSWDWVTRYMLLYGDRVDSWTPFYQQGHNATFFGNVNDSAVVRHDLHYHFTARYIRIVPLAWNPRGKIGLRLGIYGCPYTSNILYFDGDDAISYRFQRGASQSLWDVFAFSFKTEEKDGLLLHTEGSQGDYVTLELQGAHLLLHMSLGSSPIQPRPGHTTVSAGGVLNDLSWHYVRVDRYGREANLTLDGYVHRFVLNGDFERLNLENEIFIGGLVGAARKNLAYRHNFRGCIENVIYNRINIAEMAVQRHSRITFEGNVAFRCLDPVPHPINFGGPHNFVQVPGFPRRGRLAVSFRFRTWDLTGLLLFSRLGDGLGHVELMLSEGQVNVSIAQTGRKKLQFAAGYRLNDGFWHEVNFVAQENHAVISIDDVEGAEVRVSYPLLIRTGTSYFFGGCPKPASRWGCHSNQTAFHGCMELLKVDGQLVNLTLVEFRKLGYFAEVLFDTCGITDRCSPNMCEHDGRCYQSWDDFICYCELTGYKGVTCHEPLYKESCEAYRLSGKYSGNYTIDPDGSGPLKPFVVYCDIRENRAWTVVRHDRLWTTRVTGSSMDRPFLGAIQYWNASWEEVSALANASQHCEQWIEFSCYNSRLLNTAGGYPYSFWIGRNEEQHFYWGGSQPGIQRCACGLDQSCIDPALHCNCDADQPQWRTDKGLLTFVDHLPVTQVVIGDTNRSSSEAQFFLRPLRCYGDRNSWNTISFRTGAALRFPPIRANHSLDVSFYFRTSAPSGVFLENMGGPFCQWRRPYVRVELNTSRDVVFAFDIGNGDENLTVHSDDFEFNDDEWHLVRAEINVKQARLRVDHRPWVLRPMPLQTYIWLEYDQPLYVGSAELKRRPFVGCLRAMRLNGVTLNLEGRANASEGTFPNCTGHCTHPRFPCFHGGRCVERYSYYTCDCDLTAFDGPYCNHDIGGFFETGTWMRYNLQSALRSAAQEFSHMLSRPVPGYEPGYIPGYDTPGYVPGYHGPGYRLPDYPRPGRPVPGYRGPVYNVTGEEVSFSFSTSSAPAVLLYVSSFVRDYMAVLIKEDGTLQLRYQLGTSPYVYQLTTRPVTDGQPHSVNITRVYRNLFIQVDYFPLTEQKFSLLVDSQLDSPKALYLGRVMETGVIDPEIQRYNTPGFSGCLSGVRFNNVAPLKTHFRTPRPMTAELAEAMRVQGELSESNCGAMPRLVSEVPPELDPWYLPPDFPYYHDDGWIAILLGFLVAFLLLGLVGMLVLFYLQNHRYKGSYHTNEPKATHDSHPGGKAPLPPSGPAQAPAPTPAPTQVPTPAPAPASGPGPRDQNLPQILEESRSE
Experiment: bioaffinity precipitation from membrane extracts of labeled GH3 cells

- binding result: no binding
B1: βF-Fc (FNIII domain of RPTPβ fused to human IgG1-Fc) (Fc fusion)
chain: not shown
notes: domain: FNIII; also called the FNIII domain alone; fibronectin domain alone; not shown: human IgG1 Fc (vector pCNγ1)
